Source: patent US20200354457A1 (Hoffmann-La Roche, published 2020)
Where “and” joins values, the source holds several entries; their conditions need not be identical. Equal entries are not always repeated.

Experiments:
[1] = molecular target: T1, biotinylated MCSP antigen (amino acids 1553 to 2184 of matured melanoma-associated chondroitin sulfate … (Homo sapiens (Human), UniProt Q6UVK1 1582-2213, limits assumed, biotin on the C-terminal avi-tag)); assay: ELISA, biotinylated MCSP antigen on neutravidin plates, bacterial supernatants, anti-Flag/HRP
T1 construct: The entry may include the leader; also called recombinant MCSP
T1 sequence: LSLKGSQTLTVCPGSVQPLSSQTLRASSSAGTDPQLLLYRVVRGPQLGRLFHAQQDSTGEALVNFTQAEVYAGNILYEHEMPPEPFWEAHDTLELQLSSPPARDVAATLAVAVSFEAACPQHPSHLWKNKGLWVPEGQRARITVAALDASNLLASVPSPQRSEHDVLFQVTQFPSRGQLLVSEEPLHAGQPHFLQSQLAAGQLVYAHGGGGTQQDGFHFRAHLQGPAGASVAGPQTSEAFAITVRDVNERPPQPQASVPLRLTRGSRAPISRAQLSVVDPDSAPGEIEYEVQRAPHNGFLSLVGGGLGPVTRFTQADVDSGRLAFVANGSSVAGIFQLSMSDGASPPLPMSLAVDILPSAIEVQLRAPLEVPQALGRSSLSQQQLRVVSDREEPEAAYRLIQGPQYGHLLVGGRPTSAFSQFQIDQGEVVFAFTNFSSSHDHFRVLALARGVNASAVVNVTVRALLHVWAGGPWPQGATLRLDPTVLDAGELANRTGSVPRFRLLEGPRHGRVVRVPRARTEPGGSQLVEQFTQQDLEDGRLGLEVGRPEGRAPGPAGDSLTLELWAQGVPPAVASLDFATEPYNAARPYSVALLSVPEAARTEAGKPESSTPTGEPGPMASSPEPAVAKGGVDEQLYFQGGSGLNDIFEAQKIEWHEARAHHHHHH

[2] = molecular target: T2, recombinant human LAG3 Fc Chimera Protein (R&D Systems, 2319-L3) (human, UniProt P18627 23-450); assay: SPR (Biacore), aVH-Fc captured by anti-human Fc, human LAG-3 Fc chimera as analyte, 25 C
T2 construct: Bought reagent
T2 sequence (looked up): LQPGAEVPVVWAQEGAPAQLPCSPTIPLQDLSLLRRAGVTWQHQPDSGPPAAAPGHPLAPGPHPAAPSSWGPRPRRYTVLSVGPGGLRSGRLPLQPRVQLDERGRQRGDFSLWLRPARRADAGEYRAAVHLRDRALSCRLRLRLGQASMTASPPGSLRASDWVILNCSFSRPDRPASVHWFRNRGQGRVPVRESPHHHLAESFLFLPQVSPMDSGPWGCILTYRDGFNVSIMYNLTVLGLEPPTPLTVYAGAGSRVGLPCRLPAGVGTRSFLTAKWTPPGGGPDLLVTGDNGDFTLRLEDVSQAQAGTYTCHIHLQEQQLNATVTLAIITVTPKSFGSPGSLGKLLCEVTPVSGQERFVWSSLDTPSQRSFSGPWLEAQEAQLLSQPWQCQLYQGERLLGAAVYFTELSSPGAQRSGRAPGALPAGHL

[3] = molecular target: T2, recombinant human LAG3 Fc Chimera …; assay: SPR (Biacore), aVH-Fc captured by anti-human Fc, human LAG-3 Fc chimera as analyte, 25 C; * poor fit
[4] = molecular target: T3, soluble human Lag3-IgG1-Fc with biotinylated C-terminal Avi-tag (human, biotin on the C-terminal Avi-tag); assay: A375 MHCII competition ELISA at 3 µg/ml, biotinylated Lag3 250 ng/ml; competitor MHCII on A375 cells
T3 construct: also called LAG3-Fc-avi; biotinylated LAG3-Fc antigen

[5] = molecular target: T2, recombinant human LAG3 Fc Chimera …; assay: ELISA, plate coated with human LAG3 Fc chimera
[6] = molecular target: T3, soluble human Lag3-IgG1-Fc with …; assay: A375 MHCII competition ELISA, biotinylated Lag3 250 ng/ml; competitor MHCII on A375 cells
[7] = molecular target: T4, murine LAG3-Fc antigen (R&D Systems, 3328-L3-050) (murine, UniProt Q61790 24-442); assay: ELISA using murine LAG3-Fc antigen
T4 construct: Bought reagent
T4 sequence (looked up): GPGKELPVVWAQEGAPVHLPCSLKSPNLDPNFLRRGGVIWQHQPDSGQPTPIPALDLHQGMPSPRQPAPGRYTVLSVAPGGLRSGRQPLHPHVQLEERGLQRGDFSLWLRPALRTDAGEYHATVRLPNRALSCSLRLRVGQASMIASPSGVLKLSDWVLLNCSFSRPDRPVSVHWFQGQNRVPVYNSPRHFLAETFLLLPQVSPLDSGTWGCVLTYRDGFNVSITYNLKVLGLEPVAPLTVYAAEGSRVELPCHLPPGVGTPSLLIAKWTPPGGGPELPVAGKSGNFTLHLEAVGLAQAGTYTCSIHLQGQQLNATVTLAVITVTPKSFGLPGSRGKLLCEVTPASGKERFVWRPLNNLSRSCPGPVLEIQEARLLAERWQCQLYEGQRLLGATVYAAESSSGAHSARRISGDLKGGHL

[8] = molecular target: T5, human LAG3 on recombinant CHO cells (human, UniProt P18627 23-525); assay: cell ELISA on CHO cells expressing human LAG3;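 note: bivalent Fc-format binders titrated in threefold steps from 6 µg/mL, incubated with the cells 2 h at 4 °C, bound antibody detected by HRP-coupled anti-human IgG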
T5 construct: whole, on cells; also called Lag3 cells; recombinant CHO cells expressing Lag3
T5 sequence (looked up): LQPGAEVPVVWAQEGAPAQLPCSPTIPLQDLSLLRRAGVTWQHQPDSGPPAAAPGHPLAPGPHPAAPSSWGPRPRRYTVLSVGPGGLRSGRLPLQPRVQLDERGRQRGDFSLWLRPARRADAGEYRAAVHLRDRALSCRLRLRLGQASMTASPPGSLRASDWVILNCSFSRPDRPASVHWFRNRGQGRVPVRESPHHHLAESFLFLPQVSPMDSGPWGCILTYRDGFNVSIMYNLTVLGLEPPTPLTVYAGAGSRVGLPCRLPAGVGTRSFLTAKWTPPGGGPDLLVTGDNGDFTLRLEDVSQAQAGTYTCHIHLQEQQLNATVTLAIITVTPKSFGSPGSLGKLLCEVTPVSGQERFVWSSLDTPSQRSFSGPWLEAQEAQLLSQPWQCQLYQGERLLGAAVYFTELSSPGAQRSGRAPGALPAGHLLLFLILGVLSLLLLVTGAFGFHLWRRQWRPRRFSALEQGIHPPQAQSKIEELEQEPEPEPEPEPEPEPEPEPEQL

[9] = molecular target: T2, recombinant human LAG3 Fc Chimera …; assay: SPR (Biacore), antibody captured by anti-human Fc, human LAG-3 Fc chimera as analyte, 25 C
[10] = molecular target: T6, biotinylated DR5-Fc-avi (extracellular domain of Death receptor 5, amino acids 1 to 152, fused to human IgG1 … (biotin on the C-terminal avi-tag)); assay: ELISA, biotinylated DR5 antigen on neutravidin plates, bacterial supernatants, anti-Flag/HRP
T6 construct: also called DRS; Death receptor 5 ECD

B1: SEQ ID NO 59 (VHH)
VHH: EVQLVESGGGLVQPGGSLRLSCAASSFNIKDTYIGWVRRAPGKGTELVADIYCSEGSTRYADSVKGRFTISCDTSKNTAYLQMNSLRAEDTAVYYCAAVSDYVVFYYWGQGTTVTVSS
notes: is one of clones 3, 25, 44, 57.1; also called MCSP-specific aVH
B1: binds [1].

B2: bivalent P11A2 aVH-Fc (Fc fusion)
chain: EVQLVESGGGLVQPGGSLRLSCAASSFNIKDTYIGWVRRAPGKGTELVAEIACHEGTTRYADSVKGRFTISCDTSKNTAYLQMNSLRAEDTAVYYCANTEYDDIFDYWGQGTTVTVSSGGGGSGGGGSDKTHTCPPCPAPEAAGGPSVFLFPPKPKDTLMISRTPEVTCVVVDVSHEDPEVKFNWYVDGVEVHNAKTKPREEQYNSTYRVVSVLTVLHQDWLNGKEYKCKVSNKALGAPIEKTISKAKGQPREPQVYTLPPSRDELTKNQVSLTCLVKGFYPSDIAVEWESNGQPENNYKTTPPVLDSDGSFFLYSKLTVDKSRWQQGNVFSCSVMHEALHNHYTQKSLSLSPGK
For B2, the t1/2 [2] was 2.4 min, the koff [3] was 0.0048 s⁻¹ and the “% Inhibition” value [4] was 92.4%. The OD max [5] was 1.3 OD, the IC50 [6] was 0.0903 µg/mL and 1.2 nM and the binding result [7] was “no binding”. For the same binder, the EC50 [8] was 0.0169 µg/mL and 0.2 nM and the OD max [8] was 1.2 OD.

B3: SEQ ID NO 61 (VHH)
VHH: EVQLVESGGGLVQPGGSLRLSCAASSFNIKDTYIGWVRRAPGKGTELVAGIYCEAGITRYADSVKGRFTISCDTSKNTAYLQMNSLRAEDTAVYYCAGKGIGNYFDYWGQGTTVTVSS
notes: as for B1
B3: binds [1].

B4: control antibody MDX25F7 (antibody, V domains shown)
VH: QVQLQQWGAGLLKPSETLSLTCAVYGGSFSDYYWNWIRQPPGKGLEWIGEINHNGNTNSNPSLKSRVTLSLDTSKNQFSLKLRSVTAADTAVYYCAFGYSDYEYNWFDPWGQGTLVTVSS
VL: EIVLTQSPATLSLSPGERATLSCRASQSISSYLAWYQQKPGQAPRLLIYDASNRATGIPARFSGSGSGTDFTLTISSLEPEDFAVYYCQQRSNWPLTFGQGTNLEIK
With B4 the “% Inhibition” value [4] was 90.4%, the EC50 [5] was 0.0031 µg/mL and 0.02 nM and the OD max [5] was 3.39 OD. For the same binder, the koff [9] was 0.00039 s⁻¹, the t1/2 [9] was 30 min and the IC50 [6] was 0.127 µg/mL and 0.8 nM. It also gave an OD max [8] of 2.06 OD.

B5: SEQ ID NO 22 (VHH)
VHH: EVQLVESGGGLVQPGGSLRLSCAASGFNIKDTYIGWVRRAPGKGEELVARIYPTNGYTRYADSVKGRFTISADTSKNTAYLQMNSLRAEDTAVYYCAKYVRYFDYWGQGTLVTVSS
notes: Tested as bacterial supernatant; the range 21-28 may alternate DNA and protein entries
B5: binds [10].

B6: SEQ ID NO 24 (VHH)
VHH: EVQLVESGGGLVQPGGSLRLSCAASGFNIKDTYIGWVRRAPGKGEELVARIYPTNGYTRYADSVKGRFTISADTSKNTAYLQMNSLRAEDTAVYYCAKYYPRTYLDFDYWGQGTLVTVSS
notes: as for B5
B6: binds [10].

B7: SEQ ID NO 28 (VHH)
VHH: EVQLVESGGGLVQPGGSLRLSCAASGFNIKDTYIGWVRRAPGKGEELVARIYPTNGYTRYADSVKGRFTISADTSKNTAYLQMNSLRAEDTAVYYCAKRSHYSYFDYWGQGTLVTVSS
notes: as for B5
B7: binds [10].
